Measurements from IntAct's records for PubMed 12502741.

B1: Retinoblastoma-associated protein (Homo sapiens), P06400 (parent)
chain: MPPKTPRKTAATAAAAAAEPPAPPPPPPPEEDPEQDSGPEDLPLVRLEFEETEEPDFTALCQKLKIPDHVRERAWLTWEKVSSVDGVLGGYIQKKKELWGICIFIAAVDLDEMSFTFTELQKNIEISVHKFFNLLKEIDTSTKVDNAMSRLLKKYDVLFALFSKLERTCELIYLTQPSSSISTEINSALVLKVSWITFLLAKGEVLQMEDDLVISFQLMLCVLDYFIKLSPPMLLKEPYKTAVIPINGSPRTPRRGQNRSARIAKQLENDTRIIEVLCKEHECNIDEVKNVYFKNFIPFMNSLGLVTSNGLPEVENLSKRYEEIYLKNKDLDARLFLDHDKTLQTDSIDSFETQRTPRKSNLDEEVNVIPPHTPVRTVMNTIQQLMMILNSASDQPSENLISYFNNCTVNPKESILKRVKDIGYIFKEKFAKAVGQGCVEIGSQRYKLGVRLYYRVMESMLKSEEERLSIQNFSKLLNDNIFHMSLLACALEVVMATYSRSTSQNLDSGTDLSFPWILNVLNLKAFDFYKVIESFIKAEGNLTREMIKHLERCEHRIMESLAWLSDSPLFDLIKQSKDREGPTDHLESACPLNLPLQNNHTAADMYLSPVRSPKKKGSTTRVNSTANAETQATSAFQTQKPLKSTSLSLFYKKVYRLAYLRLNTLCERLLSEHPELEHIIWTLFQHTLQNEYELMRDRHLDQIMMCSMYGICKVKNIDLKFKIIVTAYKDLPHAVQETFKRVLIKEEEYDSIIVFYNSVFMQRLKTNILQYASTRPPTLSPIPHIPRSPYKFPSSPLRIPGGNIYISPLKSPYKISEGLPTPTKMTPRSRILVSIGESFGTSEKFQKINQMVCNSDRVLKRSAEGSNPPKPLKKLRFDIEGSDEADGSKHLPGESKFQQKLAEMTSTRTRMQKQKMNDSMDTSNKEEK

Variants of: B1
Settings: with e2f1_human E2F1, Q01094
e2f1_human E2F1, Q01094, sequence (Q01094 whole entry): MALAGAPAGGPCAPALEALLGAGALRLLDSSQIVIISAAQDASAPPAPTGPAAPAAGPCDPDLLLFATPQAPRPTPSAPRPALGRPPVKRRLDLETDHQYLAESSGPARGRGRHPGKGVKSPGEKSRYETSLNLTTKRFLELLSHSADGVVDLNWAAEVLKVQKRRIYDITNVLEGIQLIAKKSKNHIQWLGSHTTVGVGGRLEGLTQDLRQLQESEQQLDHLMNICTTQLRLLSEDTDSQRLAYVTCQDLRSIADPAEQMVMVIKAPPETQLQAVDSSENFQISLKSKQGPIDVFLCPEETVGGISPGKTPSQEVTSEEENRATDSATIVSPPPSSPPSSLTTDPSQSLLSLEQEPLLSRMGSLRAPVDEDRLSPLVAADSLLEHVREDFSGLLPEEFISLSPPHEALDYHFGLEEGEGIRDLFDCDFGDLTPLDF

| Variant | effect of a mutation on the interaction |
| --- | --- |
| R467A | decreasing interaction strength |
| E554A | decreasing interaction strength |
| K653A | decreasing interaction strength |
| F482A | decreasing interaction strength |
